Laboratory results: the RNAGym collection of RNA variant scans (doi:10.1073/pnas.2313332121)

B1: TPR t1 (parent)
chain: GACCAAUCUGCCCUCAGAGCUCGAGAACAUCUUCGGAUGCAGAGGAGGCAGGCUUCGGUGGCGCGAUAGCGCCAACGUCCUCAACCUCCAAUGCAUCCCACCACAUGAUGAUGCCUGAAGAGCCUUGGUUUUUUG

Variants of: B1
Experiment: polymerase ribozyme fitness, log enrichment relative to wild type (log ratio); higher = more active; in vitro selection for triplet polymerase activity
Summary of the method: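 Genotype fitness is the logarithm of its enrichment divided by wild-type enrichment, using inverse-variance-weighted averages of replicates. That logarithm is base 2. Enrichment was measured by Illumina sequencing of input and output libraries from one triplicate in vitro selection round, with frozen incubation at −7 °C, on PCR-built, transcribed mutant libraries of each subunit of a heterodimeric triplet polymerase ribozyme, retaining genotypes with ≥10 input reads and ≥1 read per output.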

Row | Variant | polymerase ribozyme fitness (log ratio)
1 | G60U C94G G110C G117A | -7.56
2 | G60C C86A G117C C123U | -6.38
3 | G60A G61U U96G | -2.55
4 | G60A A90U | -1.06
5 | G60A G113U | -1.94
6 | G60A G113A | -0.894
7 | G60A C82U C85G U129A | -3
8 | G60U C79U G93A C102A | -2.44
9 | G61A C102G | -6.12
10 | G58U U81A C124A | 1.33
11 | G61A G127U | -1.35
12 | G61A G127A | -2.37
13 | G58A C101U G120U | -0.534
14 | U59A C124U | 1.47
15 | G61A A111G | 0.971
16 | U59G C102A | -1.41
17 | G61C A90U | -4.47
18 | G60A C88U G122A | -2.19
19 | G57U G77U G113A G127C | -2.59
20 | G61A U106A G113C | -1.85
21 | G60A C89A | -1.99
22 | G61A U78G G107A C114U G117A | -6.96
23 | G60C U109G | -5.41
24 | G57U G71A | -0.471

Row | Variant | polymerase ribozyme fitness (log ratio)
25 | G60U C123A | 0.751
26 | G61C C97A C124G | -5.48
27 | G60A C79U | 0.344
28 | U59A U112A | 1.47
29 | G61A G65A | -3.94
30 | U59A A83G | -0.546
31 | G58A C79A | -1
32 | U59A A90G C123U | 1.4
33 | G58C U106A | 0.185
34 | G61C C89U | -1.58
35 | U59C A83U | -0.619
36 | G60U C62G U92C | -2.78
37 | G61A A74C C79A U131G | -1.98
38 | G61C A100U G120C G127U | -1.07
39 | G61U A108C | -3.81
40 | G58C U59G A95U G122A | -0.6
41 | G60U C79U U81A C97A U106A | -6.56
42 | G58C U59G C86G | -0.556
43 | G60A G93U U112C G113U | -5.49
44 | G61C A84C | -1.86
45 | G60A G69U | -0.576
46 | G58C C102A G120A | -2.34
47 | G61C C98U | -2.55
48 | G60A C115U | -1.41

Row | Variant | polymerase ribozyme fitness (log ratio)
49 | G60A G77A C82G | -0.994
50 | G60A G69U A95U U126A | -2.8
51 | G60C C97G U109A | -7.09
52 | G61C A100U A111G G113A | -4.64
53 | U59A G93C C114U | -2.6
54 | G61C U92A C98U C101U U106A U112G G120C | -7.61
55 | G60C C124A | 1.07
56 | G60C C124G | 0.305
57 | G61A C97A C124U | -3.09
58 | G61C A103C U109G | -5.79
59 | G60A G120U | 0.305
60 | U59G G63U U129C | -2.43
61 | U59C G71C | -3.63
62 | G60C G69U G93A G113C | -5.05
63 | G61A C114A | -0.372
64 | G61A C114U | -1.49
65 | U59C G63A G69U | -5.13
66 | G60A U112A | 1.13
67 | G60A U81A | -1.44
68 | G58A A83U U106A | -1.14
69 | G60C U87A C101U G117A U132A | -1.89
70 | G61A U112C G127C | 0.55
71 | G61A U87G | 0.506
72 | G58U G60U C80U U87A C89U | -3.57

Row | Variant | polymerase ribozyme fitness (log ratio)
73 | G60A G61A C88A G120C A121U | -2.51
74 | G58C C62A C114A G127A U130G | -6.59
75 | G58A G63U A118G | -0.392
76 | U59C G113U | -3.62
77 | U59C G113A | -1.03
78 | G60C G93A | -0.963
79 | G60U U92C U106C G107A U112C | -6.06
80 | G60A C88U A118G | -1.01
81 | G60C C82A A105G U131A | -4.31
82 | G60U C124A | 1.7
83 | G61A C124A | 1.79
84 | G57U G77U G122A | -1.42
85 | G57U G122A | -1.56
86 | G61C G65A | -4.9
87 | G60C U81C U116A | -2.88
88 | G57U U129C | -1.6
89 | G60C C85U U96A U106C A119U | -4.09
90 | G60A C114A A121G | -0.404
91 | G61A C79A C114A | -3.21
92 | G60A U78C C97G | -4.55
93 | G61A A91C C123U | 0.543
94 | G58C A83C | 0.207
95 | G61A G63A | -4.85
96 | G60U C101U A111C | 0.104

Row | Variant | polymerase ribozyme fitness (log ratio)
97 | G61C C114G | -4.27
98 | U59A G77A | -0.182
99 | G61A U81A | -0.273
100 | G61A U132A | 0.242
101 | G60A U78G A84U G93A C102A | -4.94
102 | U59C U78C G122A | -0.562
103 | G60U U116C | 0.0833
104 | G60A C85U U106G | -3.68
105 | G57U G61C U78G C114U A118U | -5.83
106 | G60U G65U A121C | -6.44
107 | G60C C104U U126A | -1.46
108 | G58C G60C | -0.636
109 | G60C A83C | -0.586
110 | G60C A83G | -1.24
111 | U59C U130C | -0.123
112 | G60U G63U G113U G117U | -5.19
113 | U59A A75U C86A C115G U116A G117A | -5.94
114 | U59G G60A C85A | -2.54
115 | G61A C79U C104A C124A | 0.783
116 | G61A C64U C86A | -4.48
117 | G60U G77C C89U U132A | -0.345
118 | U59C U87A U112C | 0.815
119 | U59C A118C | -2.95
120 | G58C C97U | -0.321

Row | Variant | polymerase ribozyme fitness (log ratio)
121 | G61C C97A | -4.3
122 | U59G U109G G120U | -4.53
123 | G61A G77U | 0.142
124 | U59A C85U G113A | -2.11
125 | G61C G63C G117C U126A G135U | -4.51
126 | G61A C88U C89A | -1.82
127 | G57U U87A A90C C101U C114U U125A | -4.29
128 | U59A G128A | -1.96
129 | G60C C123U | 0.343
130 | U59A U92G C104U | -2.6
131 | G60C A84U U116C | -0.854
132 | U59A C62G | -5.21
133 | G60U G61A U106C G128A U130A | -4.75
134 | G61C C79A C80U | -4.17
135 | U59A C70U U87A | -1.83
136 | U59A C94A | -0.84
137 | U59G G110U G135U | -2.85
138 | G58A G122A | -0.321
139 | G61C G120C | -1.04
140 | G58C G117A | -0.561
141 | G60C A111U U116C | -5.57
142 | G58C C115G C123A G135A | -3.89
143 | U59G U96G A111C U131A U133A | -1.54
144 | G61A U106C | 0.151

Row | Variant | polymerase ribozyme fitness (log ratio)
145 | G58U C82U C94U C114A | -2.23
146 | U59G A90G C97U A111C | 0.601
147 | G60C U130C | -1.11
148 | U59C C89A A95C G113C | -4.48
149 | G60U U116C U132A | -0.473
150 | G61A U78C A95C C123A | 0.138
151 | G58U G61A U131G | -0.481
152 | G57U G71A C104A U106C U125A U131C | -3.71
153 | G57U U116C | -1.31
154 | G58A G60C | -0.284
155 | G61A A95U A119U G120C C123A | 1.22
156 | U59A U81C U87A | -1.17
157 | G58A U130G | -0.629
158 | G61U A66U U112A | 0.256
159 | G60A C89A A105U C114U | -6.37
160 | G61A A68G | -2.69
161 | G61C U106C G135U | -3.18
162 | G60C A84C | -0.975
163 | G61C A111G U116G C124A U131G | -3.87
164 | G61A C79U C88A U129G | -1.53
165 | G60C C73U U130G | -0.603
166 | G58A U81A | -0.982
167 | G58A C101G | -1.94
